From patent US10806913B2, “Methods for better delivery of active agents to tumors” (Sorrento Therapeutics, Inc., priority 2015, dated 2020)
Entries after “also recorded” stand apart in the source; their conditions may differ.

Key:
[1] = Blood serum absorption rate after delivery to the skin; type: in vivo; settings: skin administration compared to i.v., s.c. or i.d.; FIG. 14
[2] = Biodistribution across tissue types after delivery to the skin; type: in vivo, rats; settings: skin delivery compared to i.v., s.c. or i.d., FIG. 13
Text: The biodistribution of etanercept across multiple tissues types following delivery was investigated.

[3] = In vivo near infrared imaging of lymphatic delivery after administration to the skin; parameters: species or system rats; settings: fluorescently tagged, needle array placed dorsally, FIG. 11 and 12
Description: The ability to deliver the protein therapeutic Etanercept directly to the lymphatic system via administration to the skin was tested. Etanercept was fluorescently tagged for in vivo visualization using near infrared light as previous described, see Sevick-Muraca et al., J. Clin Invest., 124(3), 905-914 (2014), which is incorporated by reference herein for its teachings thereof. Etanercept was administered to the skin of rats by μlacing a delivery device comprising an array of needles dorsally on the rats.

With Etanercept the “blood serum absorption rate” value [1] was “approximately the same”, the “levels within the axillary and inguinal lymph nodes” value [2] was “much higher levels” and the “levels within the axillary and inguinal lymph nodes” value ([2]; listed as Etanercept) was “increased delivery to the lymph nodes”. The “lymphatic uptake and distribution to lymph nodes” value [3] was “uptake by the lymphatic vasculature and subsequent distribution to primary and secondary lymph node tissues” and the “lymphatic uptake and distribution to lymph nodes” value ([3]; listed as Etanercept) was “delivery directly to the lymphatic vasculature and lymph node tissues; also recorded: delivery to the axillary and mandibular lymph nodes”.
